This series deals with the molecule itself. As to the kind of experiment: crystal structure.

B1: closed-gate E71V KcsA (C-terminal tail removed by chymotrypsin) (domain or fragment)
chain: PMLSGLLARLVKLLLGRHGSALHWRAAGAATVLLVIVLLAGSYLAVLAERGAPGAQLITYPRALWWSVVTATTVGYGDLYPVTLWGRLVAVVVMVAGITSFGLVTAALATWFVGREQERRGH
Consider B1, for which the stoichiometry N (as a rule, a count of units in the complex or per binding partner) is 4.

These data come from publication doi:10.1101/2021.09.22.461404 (bioRxiv, 2021).
